Measurements published in the supplement of paper PMC7877785.
± gives the uncertainty stated by the source.

Assay: self-splicing fitness, log relative to wild type (ln ratio); higher = more splicing; Tetrahymena group I intron in knt gene, E. coli kanamycin selection, DiMSum; sequences stand for … in CUCUCU…GGAGGGAAAAGUUAUCAGGCAUGCACCUGGUAGCUAGUCUUUAAACCAAUAGAUUGCAUCGGUUUAAAAGGCAAGACCGUCAAAUUGCGGGAAAGGGGUCAACAGCCGUUCAGUACCAAGUCUCAGGGGAAACUUUGAGAUGGCCUUGCAAAGGGUAUGGUAAUAAGCUGACGGACAUGGUCCUAACCACGCAGCCAAGUCCUAAGUCAACAGAUCUUCUGUUGAUAUGGAUGCAGUUCACAGACUAAAUGUCGGUCGGGGAAGAUGUAUUCUUCUCAUAAGAUAUAGUCGGACCUCUCCUUAAUGGGAGCUAGCGGAUGAAGUGAUGCAACACUGGAGCCGCUGGGAACUAAUUUGUAUGCGAAAGUAUAUUGAUUAGUUUUGGAGUACUCGUGGUCG
Procedure, shortened: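 Six replicate transformations of E. coli BL21(DE3) with a pET-22b(+) library were grown overnight at 37°C or 30°C. The library randomised all eight P1ex-region intron nucleotides, the intron lying in the knt kanamycin-resistance gene, and plates were LB agar with or without 25 μg/mL kanamycin plus 100 μg/mL carbenicillin, 50 μM IPTG and 0.2% rhamnose. Pooled colonies were amplicon-sequenced on an Illumina HiSeq 2500, and fitness is the DiMSum error-weighted combination of wild-type-normalised replicate fold changes, kanamycin versus none.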

| Sequence | self-splicing fitness (ln) (37 °C) | self-splicing fitness (ln) (30 °C) |
| --- | --- | --- |
| GAGGAGCAAUAUUACGAGGG | -1.96 ± 0.41 | – |
| GAGGAGCAAUAUUACGAGGU | -3.09 ± 0.25 | -2.71 ± 0.24 |
| GAGGAGCAAUAUUACGAUUA | -1.8 ± 0.13 | -1.73 ± 0.15 |
| GAGGAGCAAUAUUACGCACG | -0.155 ± 0.47 | – |
| GAGGAGCAAUAUUACGCCAC | -2.39 ± 0.37 | – |
| GAGGAGCAAUAUUACGCCUC | -2.29 ± 0.42 | – |
| GAGGAGCAAUAUUACGCCUG | -1.3 ± 0.44 | -2.07 ± 0.41 |
| GAGGAGCAAUAUUACGCGAA | -2.05 ± 0.3 | -2.67 ± 0.35 |
| GAGGAGCAAUAUUACGCUUU | -2.06 ± 0.41 | – |
| GAGGAGCAAUAUUACGGACA | -1.96 ± 0.3 | -3.15 ± 0.33 |
| GAGGAGCAAUAUUACGGGCG | -1.56 ± 0.24 | -2.68 ± 0.32 |
| GAGGAGCAAUAUUACGGUCA | -2.19 ± 0.21 | -2.76 ± 0.21 |
| GAGGAGCAAUAUUACGGUGG | – | -2.76 ± 0.2 |
| GAGGAGCAAUAUUACGGUGU | -1.59 ± 0.21 | -3.56 ± 0.27 |
| GAGGAGCAAUAUUACGGUUC | -3.2 ± 0.35 | – |
| GAGGAGCAAUAUUACGUCGU | -2.14 ± 0.34 | -0.318 ± 0.28 |
| GAGGAGCAAUAUUACGUGAG | -2.22 ± 0.26 | -3.37 ± 0.4 |
| GAGUAGCAAUAUUACGACGA | -0.664 ± 0.12 | -0.0886 ± 0.15 |
| GAGUAGCAAUAUUACGCAGG | -3.26 ± 0.24 | -3.04 ± 0.22 |
| GAGUAGCAAUAUUACGCAUU | -2.07 ± 0.12 | -3.07 ± 0.13 |
| GAGUAGCAAUAUUACGCCUU | -0.976 ± 0.24 | -3.2 ± 0.23 |
| GAGUAGCAAUAUUACGCGUG | -0.531 ± 0.089 | -2.16 ± 0.08 |
| GAGUAGCAAUAUUACGCUAU | – | -3.73 ± 0.27 |

| Sequence | self-splicing fitness (ln) (37 °C) | self-splicing fitness (ln) (30 °C) |
| --- | --- | --- |
| GAGUAGCAAUAUUACGGACA | -0.816 ± 0.082 | -1.44 ± 0.087 |
| GAGUAGCAAUAUUACGGACG | -0.531 ± 0.2 | -3.14 ± 0.28 |
| GAGUAGCAAUAUUACGGCAC | -0.256 ± 0.21 | -0.661 ± 0.2 |
| GAGUAGCAAUAUUACGGGCU | -1.94 ± 0.16 | -1.43 ± 0.17 |
| GAGUAGCAAUAUUACGGUUC | -2.36 ± 0.3 | -1.02 ± 0.12 |
| GAGUAGCAAUAUUACGUAGC | – | -2.44 ± 0.34 |
| GAGUAGCAAUAUUACGUAUU | -1.79 ± 0.11 | -3.24 ± 0.16 |
| GAGUAGCAAUAUUACGUGAA | -1.95 ± 0.15 | -2.5 ± 0.16 |
| GAGUAGCAAUAUUACGUGAG | -1.28 ± 0.12 | -2.5 ± 0.081 |
| GAGUAGCAAUAUUACGUGGA | -2.52 ± 0.17 | -3.37 ± 0.28 |
| GAGUAGCAAUAUUACGUGUC | -1.53 ± 0.26 | -1.73 ± 0.16 |
| GAGUAGCAAUAUUACGUGUU | -1.12 ± 0.1 | -3.05 ± 0.12 |
| GAGUAGCAAUAUUACGUUAU | -2.12 ± 0.21 | -2.9 ± 0.23 |
| GAGUAGCAAUAUUACGUUCC | – | -1.88 ± 0.46 |
| GAGUAGCAAUAUUACGUUCU | -2.56 ± 0.21 | -2.18 ± 0.18 |
| GAGUAGCAAUAUUACGUUUA | -1.63 ± 0.19 | -3.09 ± 0.25 |
| GAUAAGCAAUAUUACGAAAC | -0.746 ± 0.19 | -2.38 ± 0.2 |
| GAUAAGCAAUAUUACGAAAG | -1.66 ± 0.21 | -2.76 ± 0.18 |
| GAUAAGCAAUAUUACGAACA | -0.468 ± 0.097 | -1.02 ± 0.092 |
| GAUAAGCAAUAUUACGACAA | -0.276 ± 0.14 | -1.46 ± 0.11 |
| GAUAAGCAAUAUUACGACGG | -2.34 ± 0.27 | -2.96 ± 0.17 |
| GAUAAGCAAUAUUACGAGAA | -1.38 ± 0.38 | – |
| GAUAAGCAAUAUUACGAUAA | 0.344 ± 0.13 | -1.46 ± 0.13 |
